In publication PMC10403546:

How the values were obtained:
[1] = molecular target: X16 UFO (CRF07_BC Env), uncleaved prefusion-optimized Env trimer of isolate BJOX016000.e15 (HIV-1); experiment: cryo-EM structure
[2] = molecular target: X18 UFO (CRF01_AE Env), uncleaved prefusion-optimized Env trimer of isolate BJOX018000.e12 (HIV-1); experiment: negative stain EM
[3] = molecular target: X18 UFO (CRF01_AE Env), uncleaved prefusion-optimized Env trimer of isolate BJOX018000.e12 (HIV-1); experiment: cryo-EM structure

X16 UFO (CRF07_BC Env), uncleaved prefusion-optimized Env trimer of isolate BJOX016000.e15 (natural protein)
stoichiometry N [1]: 3

X18 UFO (CRF01_AE Env), uncleaved prefusion-optimized Env trimer of isolate BJOX018000.e12 (natural protein)
percentage of intact Env trimers, 8ANC195-bound, over 18 h [2]: 90% | percentage of intact Env trimers, F6-bound, 1 h [2]: 83% | percentage of intact Env trimers, F6-bound, 7 h [2]: 48% | stoichiometry N [3]: 3
